Earlier results, collected in article PMC5156371.
pKd: −log10 of the molar value. Where “and” joins values, the source holds several entries; their conditions need not be identical. Equal values may be shown once. Read-outs that look alike come from different tables or passages of the source.

Columns and labels:
MyD88 TIR (Homo sapiens) [1] = target: MyD88 TIR (Homo sapiens) (UniProt Q99836)
MAL TIR (Homo sapiens) [2] = target: MAL TIR (Homo sapiens) (UniProt P58753)
MyD88 TIR (Homo sapiens) [3] = target: MyD88 TIR (Homo sapiens) (UniProt Q99836); remark: listed apart in the source
MAL TIR (Homo sapiens) [4] = target: MAL TIR (Homo sapiens) (UniProt P58753); remark: listed apart in the source

Substance	pKd (MyD88 TIR (Homo sapiens) [1])	pKd (MAL TIR (Homo sapiens) [2])	pKd (MyD88 TIR (Homo sapiens) [3])	pKd (MAL TIR (Homo sapiens) [4])
A46 1-229 (from UniProt P26672)	6.34 and 6.28	5.84 and 5.81	–	–
A46 87-229 (from UniProt P26672)	–	–	6.05 and 5.91	5.64 and 5.65
